In patent US20120276092A1:

Target: polyhistidine-tagged human FcRn (human) (UniProt P55899)
Assay: AlphaScreen competition, pH 6.0, against biotinylated human IgG1 mAb CNTO 6234 on polyHis human FcRn

Chain of polyhistidine-tagged human FcRn (human) (P55899 24-297 limits assumed, chain 1 of 2): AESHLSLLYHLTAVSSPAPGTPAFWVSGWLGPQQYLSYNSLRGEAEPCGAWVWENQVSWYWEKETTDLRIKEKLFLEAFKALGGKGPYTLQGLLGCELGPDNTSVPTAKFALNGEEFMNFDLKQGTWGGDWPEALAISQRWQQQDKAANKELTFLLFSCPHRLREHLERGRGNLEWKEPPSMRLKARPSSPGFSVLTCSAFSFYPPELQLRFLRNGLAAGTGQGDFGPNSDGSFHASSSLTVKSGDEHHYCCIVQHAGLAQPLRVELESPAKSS
Chain of polyhistidine-tagged human FcRn (human) (P61769 21-119 limits assumed, chain 2 of 2, further chain): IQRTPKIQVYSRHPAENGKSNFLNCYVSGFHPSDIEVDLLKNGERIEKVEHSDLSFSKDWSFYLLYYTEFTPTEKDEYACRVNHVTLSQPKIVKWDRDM

Substance: CNTO 5303 (CNTO 530 T359N/N361T) (from UniProt P01861 116-325) (Fc fusion)
- fold change of KD against CNTO 530: 2 fold
